Biological target: T1, Cobrotoxin (N. Atra, Miami Serpentarium) (Naja atra, UniProt P60770 22-83)
T1 sequence: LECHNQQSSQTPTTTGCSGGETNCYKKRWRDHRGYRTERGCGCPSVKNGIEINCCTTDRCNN
Experiment: panning, phage ELISA and purified-VHH ELISA on coated toxin

B1: Anti-cobrotoxin VHH (B9) (VHH)
VHH: QVQLQESGGGLAQAGGSLRLSCSASRNIFRVYGWYRQAPGKQREWVASITRDDSTAYADSVKGRFTISRDSAKNTMYLQMSSLRLEDTSTYYCAAQSISGTIQWGQGTQVTVSS
notes: also called VHH candidate against cobrotoxin
B1: binds.
